T1: FLAG-hEya3 (human Eya3, full length) (human, UniProt Q99504 1-573)
T1 construct: Eya3, human, full length; cloned as FLAG-hEya3 in pCAG; only residues 65-86 are modelled in the structure; also called full-length Eya3; FLAG-Eya3
T1 sequence (looked up): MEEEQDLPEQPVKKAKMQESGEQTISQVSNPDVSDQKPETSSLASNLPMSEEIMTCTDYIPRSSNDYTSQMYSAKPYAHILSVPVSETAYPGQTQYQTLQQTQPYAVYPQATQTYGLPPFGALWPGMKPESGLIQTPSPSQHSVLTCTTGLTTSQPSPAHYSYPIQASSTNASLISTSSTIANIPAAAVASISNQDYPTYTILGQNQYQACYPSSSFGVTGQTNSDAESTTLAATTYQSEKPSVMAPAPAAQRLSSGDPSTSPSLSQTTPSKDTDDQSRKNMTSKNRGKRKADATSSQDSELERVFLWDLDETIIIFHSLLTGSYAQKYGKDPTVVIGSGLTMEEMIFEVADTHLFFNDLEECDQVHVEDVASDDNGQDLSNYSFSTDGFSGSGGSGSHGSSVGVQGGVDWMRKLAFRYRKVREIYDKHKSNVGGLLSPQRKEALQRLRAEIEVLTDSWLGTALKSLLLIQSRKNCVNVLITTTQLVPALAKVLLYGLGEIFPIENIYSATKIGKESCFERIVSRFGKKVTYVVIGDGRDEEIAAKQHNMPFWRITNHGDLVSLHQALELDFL


Key:
[1] = target: T1, FLAG-hEya3 (human Eya3, full length); assay: cryo-EM structure; PP2A–B55 + Eya3: 10 μM purified PP2A–B55 incubated with 15 μM full-length Eya3; 0.1% CHAPSO added before vitrification; 3.7 Å; settings: both partners purified
[2] = target: T1, FLAG-hEya3 (human Eya3, full length); assay: mass photometry; proteins combined at a molar ratio of 1.5:1 in 20 mM Tris pH 8, 250 mM NaCl, 1 mM MnCl2, 0.5 mM TCEP, on ice, in the presence or absence of 25 μM B55i peptide; diluted to 100 nM before reading (Refeyn TwoMP); settings: both partners purified

binding result [1]	binding result [2]	Binder
binds		FLAG-hB55 (B55α subunit of the PP2A–B55 holoenzyme purified from HEK293 FreeStyle cells) (natural protein, human, PP2A regulatory B subunit B55α, human; FLAG-hB55 in pCAG; The same chain as the first chain of m7, written alone for the contacts seen in the structures; also called FLAG-B55; B55 subunit) AGAGGGNDIQWCFSQVKGAVDDDVAEADIISTVEFNHSGELLATGDKGGRVVIFQQEQENKIQSHSRGEYNVYSTFQSHEPEFDYLKSLEIEEKINKIRWLPQKNAAQFLLSTNDKTIKLWKISERDKRPEGYNLKEEDGRYRDPTTVTTLRVPVFRPMDLMVEASPRRIFANAHTYHINSISINSDYETYLSADDLRINLWHLEITDRSFNIVDIKPANMEELTEVITAAEFHPNSCNTFVYSSSKGTIRLCDMRASALCDRHSKLFEEPEDPSNRSFFSEIISSISDVKFSHSGRYMMTRDYLSVKIWDLNMENRPVETYQVHEYLRSKLCSLYENDCIFDKFECCWNGSDSVVMTGSYNNFFRMFDRNTKRDITLEASRENNKPRTVLKPRKVCASGKRKKDEISVDSLDFNKKILHTAWHPKENIIAVATTNNLYIFQDKVN
	binds	His-hB55 (human PP2A regulatory subunit B55α) (natural protein, UniProt P63151 1-447, looked up, PP2A regulatory B subunit B55α, human; cloned as His-hB55 in pFASTbac; Labelled on the His tag with RED-Tris-NTA dye for MST; also called His-B55; His-B55α; source: Hi5 insect cells, purified (nickel resin)) MAGAGGGNDIQWCFSQVKGAVDDDVAEADIISTVEFNHSGELLATGDKGGRVVIFQQEQENKIQSHSRGEYNVYSTFQSHEPEFDYLKSLEIEEKINKIRWLPQKNAAQFLLSTNDKTIKLWKISERDKRPEGYNLKEEDGRYRDPTTVTTLRVPVFRPMDLMVEASPRRIFANAHTYHINSISINSDYETYLSADDLRINLWHLEITDRSFNIVDIKPANMEELTEVITAAEFHPNSCNTFVYSSSKGTIRLCDMRASALCDRHSKLFEEPEDPSNRSFFSEIISSISDVKFSHSGRYMMTRDYLSVKIWDLNMENRPVETYQVHEYLRSKLCSLYENDCIFDKFECCWNGSDSVVMTGSYNNFFRMFDRNTKRDITLEASRENNKPRTVLKPRKVCASGKRKKDEISVDSLDFNKKILHTAWHPKENIIAVATTNNLYIFQDKVN
